B1: 11A6 (antibody, human IgG1, kappa, V domains shown)
VH: EVQLVESGGNLVQPGRSLRLSCAASGFTFDDYAMHWVRQAPGKGLEWVSGISWNNNDIGYADSVKGRFIISRDNAKNSLYLQMNSLRPEDTALYYCVKGYYVILTGLDYWGQGTPVTVSS
VL: DIQMTQSPSSLSASVGDRVTITCRASQGISSWLAWYQQKPEKAPKSLIYAASSLQSGVPSRFSGSGSGTDFTLTISSLQPEDFATYYCQQYNSYPLTFGGGTKVEIKR
B2: 10D2 (antibody, human IgG4, kappa, V domains shown)
VH: QVQLVESGGGVVQPGRSLRLSCAASGFTFSNYGLHWVRQAPGKGLEWVAVIRYDGSNKYYADSVKGRFTISRDNSKNTLYLQMSSLRAEDTAVYYCARGGSSWYPDGLDVWGQGTTVTVSS
VL: DIQMTQSPSSLSASVGDRVTITCRASQGISSWLAWYQQKPEKAPKSLIYAASSLQSGVPSRFSGSGSGTDFTLTISSLQPEDFATYYCQQYNSYPLTFGGGTKVEIKR
B3: 7A11 (antibody, human IgG1, kappa, V domains shown)
VH: EVQLVESGGGLVQTGRSLRLSCAASGFTFDDYAMHWVRQAPGKGLEWVSDISWNSDIIGYADSVKGRFTISRDNAKNSLYLQMNSLRAEDTALYYCAKDIYGSGSSFFDYWGQGILVTVSS
VL: DIQMTQSPSSLSASVGDRVTITCRASQYISSWLAWYQQKPEKAPKSLIYAASSLQSGVPSRFSGSGSGTDFTLTISSLQPEDFATYYCQQYHSYPPTFGQGTRLEIKR
B4: 4C3 (antibody, human IgG1, kappa, V domains shown)
VH: EVQLVESGGGLVQPGRSLRLSCAASGFTFDDYAMHWVRQAPGKGLEWVSGISWKSGSIGYADSVKGRFTISRDNAKNSLYLQMNSLRAEDTALYYCVKGYYVILTGLDYWGQGTLVTVSS
VL: not shown
notes: IgG1za; also called 4C3-1
B5: 24H2 (antibody, human IgG4, kappa, V domains shown)
VH: QVQLVESGGGVVQPGRSLRLSCAASGFTFSNYGMHWVRQAPGKGLEWVAVIWYDGGNKYYADSVKGRFTISRDNSKNTLFLQMNSLRAEDTAVYYCARGGSSWYPDAFDIWGQGTMVTVSS
VL: DIQMTQSPSSLSASVGDRVTITCRASQGISSWLAWYQQKPEKAPKSLIYAASSLQSGVPSRFSGSGSGTDFTLTISSLQPEDFATYYCQQYNSYPLTFGGGTKVEIKR
B6: CD73.4-IgG2-C219S (antibody)
heavy: QVQLVESGGGVVQPGRSLRLSCAASGFTFSNYGMHWVRQAPGKGLEWVAVILYDGSNKYYPDSVKGRFTISRDNSKNTLYLQMNSLRAEDTAVYYCARGGSSWYPDSFDIWGQGTMVTVSSASTKGPSVFPLAPCSRSTSESTAALGCLVKDYFPEPVTVSWNSGALTSGVHTFPAVLQSSGLYSLSSVVTVPSSNFGTQTYTCNVDHKPSNTKVDKTVERKSCVECPPCPAPPVAGPSVFLFPPKPKDTLMISRTPEVTCVVVDVSHEDPEVQFNWYVDGVEVHNAKTKPREEQFNSTFRVVSVLTVVHQDWLNGKEYKCKVSNKGLPAPIEKTISKTKGQPREPQVYTLPPSREEMTKNQVSLTCLVKGFYPSDIAVEWESNGQPENNYKTTPPMLDSDGSFFLYSKLTVDKSRWQQGNVFSCSVMHEALHNHYTQKSLSLSPG
light: not shown
notes: also called CD73.4-IgG2CS; CD73.4-IgG2.3; copies: 2 + 2
B7: CD73.10-IgG2-C219S (antibody)
heavy: QVQLVESGGGVVQPGRSLRLSCAASGFTFSNYGMHWVRQAPGKGLEWVAVIWYDESNKYYPDSVKGRFTISRDNSKNTLYLQMNSLRAEDTAVYYCARGGSSWYPDSFDIWGQGTMVTVSSASTKGPSVFPLAPCSRSTSESTAALGCLVKDYFPEPVTVSWNSGALTSGVHTFPAVLQSSGLYSLSSVVTVPSSNFGTQTYTCNVDHKPSNTKVDKTVERKSCVECPPCPAPPVAGPSVFLFPPKPKDTLMISRTPEVTCVVVDVSHEDPEVQFNWYVDGVEVHNAKTKPREEQFNSTFRVVSVLTVVHQDWLNGKEYKCKVSNKGLPAPIEKTISKTKGQPREPQVYTLPPSREEMTKNQVSLTCLVKGFYPSDIAVEWESNGQPENNYKTTPPMLDSDGSFFLYSKLTVDKSRWQQGNVFSCSVMHEALHNHYTQKSLSLSPG
light: not shown
notes: also called CD73.10-IgG2CS; CD73.10-IgG2S
B8: CD73.4-IgG2-C219S-IgG1.1f (antibody)
heavy: QVQLVESGGGVVQPGRSLRLSCAASGFTFSNYGMHWVRQAPGKGLEWVAVILYDGSNKYYPDSVKGRFTISRDNSKNTLYLQMNSLRAEDTAVYYCARGGSSWYPDSFDIWGQGTMVTVSSASTKGPSVFPLAPCSRSTSESTAALGCLVKDYFPEPVTVSWNSGALTSGVHTFPAVLQSSGLYSLSSVVTVPSSNFGTQTYTCNVDHKPSNTKVDKTVERKSCVECPPCPAPPVAGPSVFLFPPKPKDTLMISRTPEVTCVVVDVSHEDPEVKFNWYVDGVEVHNAKTKPREEQYNSTYRVVSVLTVLHQDWLNGKEYKCKVSNKALPSSIEKTISKAKGQPREPQVYTLPPSREEMTKNQVSLTCLVKGFYPSDIAVEWESNGQPENNYKTTPPVLDSDGSFFLYSKLTVDKSRWQQGNVFSCSVMHEALHNHYTQKSLSLSPG
light: not shown
modifications: N-terminal Gln 94% pyro-Q; 97% of heavy chains lack the C-terminal Lys
B9: CD73.10-IgG2-C219S-IgG1.1f (antibody)
heavy: QVQLVESGGGVVQPGRSLRLSCAASGFTFSNYGMHWVRQAPGKGLEWVAVIWYDESNKYYPDSVKGRFTISRDNSKNTLYLQMNSLRAEDTAVYYCARGGSSWYPDSFDIWGQGTMVTVSSASTKGPSVFPLAPCSRSTSESTAALGCLVKDYFPEPVTVSWNSGALTSGVHTFPAVLQSSGLYSLSSVVTVPSSNFGTQTYTCNVDHKPSNTKVDKTVERKSCVECPPCPAPPVAGPSVFLFPPKPKDTLMISRTPEVTCVVVDVSHEDPEVKFNWYVDGVEVHNAKTKPREEQYNSTYRVVSVLTVLHQDWLNGKEYKCKVSNKALPSSIEKTISKAKGQPREPQVYTLPPSREEMTKNQVSLTCLVKGFYPSDIAVEWESNGQPENNYKTTPPVLDSDGSFFLYSKLTVDKSRWQQGNVFSCSVMHEALHNHYTQKSLSLSPG
light: not shown
B10: 5F8 (antibody, human IgG1, kappa, V domains shown)
VH: EVQLVESGGGLVQPGGSLRLSCAASGFTFSSYWMHWVRQAPGKGLVWVSRIISDGSSTGYADSVKGRFTISRDNAKNTLYLQMNSLRAEDTAVYYCAREFSSGWYFDYWGQGTLVTVSS
VL: AIQLTQSPSSLSASVGDRVTITCRASQGISSALAWYQQKPGKAPKLLIYDASSLESGVPSRFSGSGSGTDFTLTISSLQPEDFATYYCQQFSSYPRTFGQGTKVEIKR
B11: 4D4 (antibody, human IgG2, kappa)
heavy: QVQLVESGGGVVQPGRSLRLSCAASGFTFSNYGMHWVRQAPGKGLEWVAVIWYDESNKYYADSVKGRFTISRDNSKNTLFLQMNSLRAEDTAVYYCARGYNSRWYPDAFDIWGQGTMVTVSSASTKGPSVFPLAPCSRSTSESTAALGCLVKDYFPEPVTVSWNSGALTSGVHTFPAVLQSSGLYSLSSVVTVPSSNFGTQTYTCNVDHKPSNTKVDKTVERKCCVECPPCPAPPVAGPSVFLFPPKPKDTLMISRTPEVTCVVVDVSHEDPEVQFNWYVDGVEVHNAKTKPREEQFNSTFRVVSVLTVVHQDWLNGKEYKCKVSNKGLPAPIEKTISKTKGQPREPQVYTLPPSREEMTKNQVSLTCLVKGFYPSDIAVEWESNGQPENNYKTTPPMLDSDGSFFLYSKLTVDKSRWQQGNVFSCSVMHEALHNHYTQKSLSLSPGK
light: not shown
notes: IgG2; also called 4D4-1
B12: CD73.11-IgG2-C219S (antibody)
heavy: QVQLVESGGGVVQPGRSLRLSCAASGFTFSNYGMHWVRQAPGKGLEWVAVIWYDESNKYYADSVKGRFTISRDNSKNTLFLQMNSLRAEDTAVYYCARGYNSRWYPDAFDIWGQGTMVTVSSASTKGPSVFPLAPCSRSTSESTAALGCLVKDYFPEPVTVSWNSGALTSGVHTFPAVLQSSGLYSLSSVVTVPSSNFGTQTYTCNVDHKPSNTKVDKTVERKSCVECPPCPAPPVAGPSVFLFPPKPKDTLMISRTPEVTCVVVDVSHEDPEVQFNWYVDGVEVHNAKTKPREEQFNSTFRVVSVLTVVHQDWLNGKEYKCKVSNKGLPAPIEKTISKTKGQPREPQVYTLPPSREEMTKNQVSLTCLVKGFYPSDIAVEWESNGQPENNYKTTPPMLDSDGSFFLYSKLTVDKSRWQQGNVFSCSVMHEALHNHYTQKSLSLSPG
light: not shown
notes: also called CD73.11-IgG2CS

Key:
human CD73 on cells [1] = target: T1, human CD73 on cells (human, UniProt P21589 27-549); assay: cell-based or functional assay
T1 sequence: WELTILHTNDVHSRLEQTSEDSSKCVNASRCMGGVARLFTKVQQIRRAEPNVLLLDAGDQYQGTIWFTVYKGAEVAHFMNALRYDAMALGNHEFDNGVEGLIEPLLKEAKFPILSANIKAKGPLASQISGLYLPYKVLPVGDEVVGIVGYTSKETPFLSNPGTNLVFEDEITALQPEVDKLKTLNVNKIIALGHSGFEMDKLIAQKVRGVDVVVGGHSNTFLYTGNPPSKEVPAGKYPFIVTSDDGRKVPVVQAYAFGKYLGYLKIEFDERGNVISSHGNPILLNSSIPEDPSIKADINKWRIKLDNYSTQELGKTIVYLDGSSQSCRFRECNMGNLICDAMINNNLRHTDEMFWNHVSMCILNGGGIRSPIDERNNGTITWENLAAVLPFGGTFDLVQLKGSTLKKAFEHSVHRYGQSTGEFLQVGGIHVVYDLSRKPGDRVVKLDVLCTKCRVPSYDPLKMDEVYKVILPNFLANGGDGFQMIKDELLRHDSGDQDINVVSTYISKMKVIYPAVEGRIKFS

human CD73 on cells [2] = target: T1, human CD73 on cells; assay: cell-based or functional assay; remark: listed apart in the source
N-hCD73-his = target: T2, N-hCD73-his (human, UniProt P21589 26-336); assay: SPR
T2 construct: also called hCD73(26-336)His; CD73(26-336)His; not shown: His tag
T2 sequence: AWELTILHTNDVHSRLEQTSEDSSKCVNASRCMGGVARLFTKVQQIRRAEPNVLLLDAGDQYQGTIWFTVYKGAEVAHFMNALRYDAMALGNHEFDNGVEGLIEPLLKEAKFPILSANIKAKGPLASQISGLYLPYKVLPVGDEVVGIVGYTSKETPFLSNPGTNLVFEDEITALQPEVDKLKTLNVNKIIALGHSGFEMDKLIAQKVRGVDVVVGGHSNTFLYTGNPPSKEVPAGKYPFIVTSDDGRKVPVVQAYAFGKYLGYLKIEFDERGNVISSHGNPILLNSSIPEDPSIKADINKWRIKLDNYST
Source text: One experimental format tested the binding of the N-terminal domain of hCD73 (consisting of residues 26-336 of human CD73; termed N-hCD73) to antibodies that were captured on immobilized protein A surfaces. For these experiments, protein A (Pierce) was immobilized to a density of 3000-4000 RU on flow cells 1-4 of a CM5 sensor chip (GE Healthcare) using standard ethyl(dimethylaminopropyl) carbodiimide (EDC)/N-hydroxysuccinimide (NHS) chemistry, with ethanolamine blocking, in a running buffer of 0.01 M HEPES pH 7.4, 0.15 M NaCl, 3 mM EDTA, 0.005% v/v tween 20. […] The running buffer for the kinetic experiments was 10 mM sodium phosphate, 130 mM sodium chloride, 0.05% tween 20, pH 7.1. The surfaces were regenerated after each cycle using two 30 s pulses of 10 mM glycine pH 1.5 at a flow rate of 30 μl/min. Sensogram data was double-referenced and then fitted to a 1:1 Langmuir model using Biacore T100 evaluation software v2.0.4, to determine the association rate constant (ka), the dissociation rate constant (kd), and the equilibrium dissociation constant (KD).

Binder	Ymax, cAMP HTRF assay (100 nM 11F11 set to 100%) (human CD73 on cells [1])	Ymax, CD73 internalization (100 nM 11F11 set to 100%) (human CD73 on cells [2])	Kd (N-hCD73-his)
B1	84%		
B2		29%	
B3	45%	50%	
B4	80%		100 to 200 nM
B5		51%	
B6			1.1 nM
B7		99%	~5 nM
B8		97%	
B9		99%	
B10	80%		
B11		104%	~5 nM
B12			~5 nM

— patent US20180127513A1 (Bristol-Myers Squibb, published 2018)
